{"source": "paper PMC5585231", "target": "CD3 ζ SNID2 peptide (22-mer)", "sequence (P20963 other isoform, or with tags, fused parts or gaps)": "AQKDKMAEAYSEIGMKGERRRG", "experiment": "ITC; MicroCal iTC200; 20 mM HEPES (pH 8.0), 100 mM NaCl, 25 °C; typically Nef at 200 μM injected from the syringe to 20 μM CD3 ζ in the cell", "data": [{"substance": "SIV_(mac239) Nef 66–235 (SIV Nef-B) (from UniProt Q5QGG3 66-235) (domain or fragment)", "values": [{"measurement": "Kd", "result": 2600, "unit": "nM"}]}]}
